Laboratory results published in US20240254259A1 (NATIONAL RESEARCH COUNCIL CANADA, published 2024).

Assays:
[1] = molecular target: full length human DPEP-1 displayed on HEK293T / HEK293-6E cells (human) (UniProt P16444); assay: flow cytometry, biotinylated negative control VHH at 100 nM on HEK-293T cells overexpressing human DPEP-1, streptavidin-PE; the same number stands in all seven panels
[2] = molecular target: T1, full length human DPEP-1 displayed on HEK293T / HEK293-6E cells (human, UniProt P16444 17-385); assay: flow cytometry, biotinylated VHH titrated on HEK-293-6E cells overexpressing hDPEP-1
T1 construct: whole, on cells; GPI-anchored on the cell surface; also called hDPEP-1
T1 sequence (looked up): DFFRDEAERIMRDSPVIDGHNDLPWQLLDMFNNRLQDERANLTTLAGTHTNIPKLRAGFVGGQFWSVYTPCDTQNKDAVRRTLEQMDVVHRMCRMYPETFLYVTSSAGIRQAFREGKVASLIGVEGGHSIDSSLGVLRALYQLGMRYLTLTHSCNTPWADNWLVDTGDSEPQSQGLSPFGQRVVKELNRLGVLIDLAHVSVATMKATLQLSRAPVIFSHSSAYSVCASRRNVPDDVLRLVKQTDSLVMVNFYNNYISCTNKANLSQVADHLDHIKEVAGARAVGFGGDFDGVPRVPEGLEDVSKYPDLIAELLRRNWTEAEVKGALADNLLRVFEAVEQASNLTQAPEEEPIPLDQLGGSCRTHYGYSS
Procedure: (§1) VHH concentrations at 50% binding, EC₅₀ values, were calculated from graphs and recorded in Table 5.
(§2) Binding of biotinylated VHHs to hDPEP-1 was detected using streptavidin-phycoerythrin (SPE). The binding profile of the anti-DPEP-1 rabbit pAb (Proteintech, Cat #12222-1-AP) positive control is shown as inset. Binding of the rabbit pAb was detected using goat anti-rabbit IgG antibody conjugated to phycoerythrin (Thermo Fisher, Cat #P-2771MP). Graphs in FIG. 3B with similar maximal fluorescence plateau are grouped together and shown in FIG. 3C (A20.1 VHH is shown for comparison). Three independent experiments were performed and data were collected on a Beckman CytoFLEX Analyzer followed by analysis with FlowJo v10.6.2 (TreeStar). EC₅₀ values were calculated from FIG. 3C and recorded in Table 5. Based on the binding measured by flow cytometry, four affinity groups may be identified: medium (sdABP01/03), high (sdABP02/04/07), high-very high (sdABP05), and very high (sdABP06).

[3] = molecular target: T1, full length human DPEP-1 displayed on …; assay: flow cytometry on human DPEP-1-expressing cells, monomeric VHH (Table 8 restating Table 5)
Procedure: as §1, §2

[4] = molecular target: T2, recombinant human DPEP-1 ectodomain (human, UniProt P16444 17-385, chemically biotinylated with NHS-LC-LC-Biotin in the SPR assay); assay: SPR, single-cycle kinetics, biotinylated hDPEP-1 ectodomain captured, VHH flowed; mean ± SD of triplicates
T2 construct: range 17-385; The limits 17-385 are given for the immunogen; also called hDPEP-1 ectodomain; hDPEP-1 ECD
T2 sequence (looked up): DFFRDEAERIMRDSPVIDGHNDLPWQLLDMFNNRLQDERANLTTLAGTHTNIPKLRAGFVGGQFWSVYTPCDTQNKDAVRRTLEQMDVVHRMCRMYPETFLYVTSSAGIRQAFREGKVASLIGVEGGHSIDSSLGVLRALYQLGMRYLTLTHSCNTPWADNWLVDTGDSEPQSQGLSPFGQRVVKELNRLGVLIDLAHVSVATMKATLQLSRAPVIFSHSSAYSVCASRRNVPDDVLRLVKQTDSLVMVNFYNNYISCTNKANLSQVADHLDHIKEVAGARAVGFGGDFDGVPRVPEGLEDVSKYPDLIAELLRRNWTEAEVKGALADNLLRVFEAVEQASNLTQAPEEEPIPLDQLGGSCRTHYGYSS
Procedure: (§3) The binding affinity of DPEP-1-specific VHHs was analyzed by surface plasmon resonance (SPR). Recombinant human DPEP-1 (hDPEP-1) ectodomain was chemically biotinylated using EZ-Link™ NHS-LC-LC-Biotin (Thermo Fisher, Cat #21343) following manufacturer instructions. Biotinylated recombinant hDPEP-1 ectodomain was then captured on CM5 sensorchip surfaces using Biotin CAPture reagent followed by flowing over surfaces VHHs at concentrations ranging from 0.625-10 nM (sdABP02), 2.5-40 nM (sdABP03/05/07), 6.25-100 nM (sdABP06) and 12.5-200 nM (sdABP01/04). Dark lines represent data points, light lines fit to the data. Data were generated in triplicates. Diagonal lines represent equilibrium dissociation constants, KDs. KD values (mean±SD) obtained in FIG. 2A are shown in Table 4. sdABP01 binding data gave poor fit to the 1:1 binding model. As a result, its KD could not be determined with certainty. A better fit was observed using the heterogeneous ligand binding model.

[5] = molecular target: T2, recombinant human DPEP-1 ectodomain; assay: SPR single-cycle kinetics; biotinylated h-DPEP1 captured on the chip, VHH flowed over; 1:1 binding model, 25 C; one replicate of three
Procedure: (§4) Recombinant human DPEP-1 was biotinylated as described in Example 3 and captured on CM5 sensorchip surfaces using Biotin CAPture reagent followed by flowing over surfaces VHHs at concentrations ranging from 0.625-10 nM (sdABP02), 2.5-40 nM (sdABP03/05/07), 6.25-100 nM (sdABP06) and 12.5-200 nM (sdABP01/04). Dark lines represent data points, light lines fit to the data. Data were generated in triplicates and data for one replicate set are shown.
as §3

[6] = molecular target: T2, recombinant human DPEP-1 ectodomain; assay: SPR single-cycle kinetics; biotinylated h-DPEP1 captured on the chip, VHH flowed over; 1:1 binding model, 25 C; one replicate of three [con't]
Procedure: as §4, §3

Clostridium difficile toxin A-specific A20.1 VHH
geometric mean fluorescence intensity (number above the histogram) [1]: 106

B1: sdABP05 (VHH with BAP and His6 tags) (VHH)
VHH: EVQLVESGGGLVQPGGSLRLSCAASGFTFSTYAMTWVRKAPGKGFEWISSIDSGGGVTLYADSVKGRFTISKDNAKNTLYLQMNNLKPDDTAVYYCVKNYGSTSLQSRGQGTQVTVSS
modifications: biotin on the Biotinylation Acceptor Peptide in the flow cytometry and immunoprecipitation assays
notes: Monomeric llama VHH with BAP and His6; also called sdAb05
EC50 [2]: 5.3 nM
EC50 [3]: 5.3 nM
Kd [4]: 10.6 nM
Kd [5]: 12.8 nM
koff [5]: 0.0276 s⁻¹
kon [5]: 2.15e+06 M⁻¹ s⁻¹

B2: sdABP07 (VHH with BAP and His6 tags) (VHH)
VHH: EVQLVESGGGLVEYGGSLRLSCAASESTLDNYAIAWFRQAPGKEREVVSCVGKSGGRSDYADSVKGRFTISRDNAKNTVYLQMNSLKPEDTAVYSCAARRVWFGGCVLGTSQGQYDYWGQGTQVTVSS
modifications: biotin on the Biotinylation Acceptor Peptide in the flow cytometry and immunoprecipitation assays
notes: Monomeric llama VHH with BAP and His6; also called sdAb07
EC50 [2]: 15 nM
EC50 [3]: 15 nM
Kd [4]: 5.09 nM
Kd [6]: 5.05 nM
koff [6]: 0.00835 s⁻¹
kon [6]: 1.65e+06 M⁻¹ s⁻¹

B3: sdABP03 (VHH with BAP and His6 tags) (VHH)
VHH: EVQLVESGGGLVQPGGSLRLSCATSEFTLDYYAIGWFRQAPGKEREGVSCISSSGGTTNYADSVKGRFTISSDNAKNTVSLQMNSLRPEDTAVYYCAAARVSAYYLGNYGCLNAEYGYWGQGTQVTVSS
modifications: biotin on the Biotinylation Acceptor Peptide in the flow cytometry and immunoprecipitation assays
notes: Monomeric llama VHH with BAP and His6; also called sdAb03
EC50 [2]: 550 nM
EC50 [3]: 550 nM
Kd [4]: 27 nM
Kd [6]: 26.9 nM
koff [6]: 0.0605 s⁻¹
kon [6]: 2.25e+06 M⁻¹ s⁻¹

B4: sdABP06 (VHH with BAP and His6 tags) (VHH)
VHH: EVQLVDSGGGLVQPGGSLRLSCAASGFTFSNYDMSWVRQGPGKGPEWVSIISYVGGLTRYSDSVKGRFTISRDNAKNTLYLQMNSLNTEDTALYYCARVKSMHPTSTTGEYDYRGRGTQVTVSS
modifications: biotin on the Biotinylation Acceptor Peptide in the flow cytometry and immunoprecipitation assays
notes: Monomeric llama VHH with BAP and His6; also called sdAb06
EC50 [2]: 0.96 nM
EC50 [3]: 0.96 nM
Kd [4]: 6.32 nM
Kd [6]: 5.91 nM
koff [6]: 0.00103 s⁻¹
kon [6]: 175000 M⁻¹ s⁻¹
